Laboratory results taken from the supplement of paper PMC7125110.
± gives the standard error. For part of these data: This sample holds only a part of the variants without activity.

B1: glmS ribozyme (parent)
chain: AUAAAAGCGCCAGAACUACAGAAAUGUAGUUGACGAGGAGGAGGUUUAUCGAAUUUUCGGCGGAUGCCUCCAAA

Assays:
Conditions in all cases: with glucosamine-6-phosphate
glucosamine-6-phosphate [1] = variants of: B1; test: kcat; higher = faster cleavage; RNA array
Procedure, shortened: (§1)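 Sequenced MiSeq chips were the platform: E. coli RNA polymerase transcribed barcoded ribozyme variants on them in situ, and a hybridised Cy3 probe tracked these at 37 °C. After glucosamine-6-phosphate (40 μM to 10 mM) in HEPES/KCl/Mg(OAc)2 buffer was flowed in, tiles were imaged over ~14 h. Signals normalised to baseline and to non-cleaving reference variants were reduced to per-tile medians and fit to one- or two-exponential decays to obtain kobs. kcat and KM were derived through weighted Michaelis–Menten fits across concentrations.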

glucosamine-6-phosphate [2] = variants of: B1; test: self-cleavage kobs at 2500 uM GlcN6P; higher = faster cleavage; RNA array
Procedure, shortened: as §1

glucosamine-6-phosphate [3] = variants of: B1; test: self-cleavage kobs at 10000 uM GlcN6P; higher = faster cleavage; RNA array
Procedure, shortened: as §1

glucosamine-6-phosphate [4] = variants of: B1; test: KM; higher = weaker cofactor use; RNA array
Procedure, shortened: as §1

glucosamine-6-phosphate [5] = variants of: B1; test: self-cleavage kobs at 640 uM GlcN6P; higher = faster cleavage; RNA array
Procedure, shortened: as §1

glucosamine-6-phosphate [6] = variants of: B1; test: self-cleavage kobs at 40 uM GlcN6P; higher = faster cleavage; RNA array
Procedure, shortened: as §1

glucosamine-6-phosphate [7] = variants of: B1; test: self-cleavage kobs at 160 uM GlcN6P; higher = faster cleavage; RNA array
Procedure, shortened: as §1

Variant | kcat (glucosamine-6-phosphate [1]) | self-cleavage kobs at 2500 uM GlcN6P (glucosamine-6-phosphate [2]) | self-cleavage kobs at 10000 uM GlcN6P (glucosamine-6-phosphate [3]) | KM (glucosamine-6-phosphate [4]) | self-cleavage kobs at 640 uM GlcN6P (glucosamine-6-phosphate [5]) | self-cleavage kobs at 40 uM GlcN6P (glucosamine-6-phosphate [6]) | self-cleavage kobs at 160 uM GlcN6P (glucosamine-6-phosphate [7])
AUAAAAGCGCCAGAACUACAGAAAUGUAGUUGACGAGGAGGAGGUUUAACGAAUUUUCGGCGGAUGCCUUCAAA [U49A C70U] | 2.22e-05 ± 1.1e-05 s⁻¹ | 3.89e-05 ± 1.9e-05 s⁻¹ | – | – | – | – | –
AUAAAAGCGCCAGAACUACAGAAAUGUAGUUGACGAGGAGGAGGUUUAACGAAUUUUCGGCGGAUGCCUGCAAA [U49A C70G] | 1.43e-05 ± 3.7e-06 s⁻¹ | – | – | – | – | – | –
AUAAAAGCGCCAGAACUACAGAAAUGUAGUUGACGAGGAGGAGGUUUACCGAAUUUUGGGCGGAUGCCUCCAAA [U49C C58G] | < 1e-05 s⁻¹ | – | < 1e-05 s⁻¹ | – | – | – | –
AUAAAAGCGCCAGAACUACAGAAAUGUAGUUGACGAGGAGGAGGUUUUUCGAAUUUUCGGCGGAUACCUCCAAA [A48U G66A] | 0.000466 ± 2.8e-05 s⁻¹ | 0.000123 ± 2.3e-05 s⁻¹ | 0.00027 ± 4.1e-05 s⁻¹ | 7160 ± 740 µM | – | – | –
AUAAAAGCGCCAGAACUACAGAAAUGUAGUUGACGAGGAGGAGGUUUUUCGAAUUUUCGGCGGAUGCCUCGAAA [A48U C71G] | 4.92e-05 ± 1e-05 s⁻¹ | 6.5e-05 ± 9.8e-06 s⁻¹ | 3.69e-05 ± 8e-06 s⁻¹ | – | 4.04e-05 ± 7.5e-06 s⁻¹ | – | –
AUAAAAGCGCCAGAACUACAGAAAUGUAGUUGACGAGGAGGAGGUUUUUCGAAUUUUCGGCGGAUGCCUCAAAA [A48U C71A] | 0.000129 ± 1.2e-05 s⁻¹ | 0.000102 ± 2.6e-05 s⁻¹ | 0.000111 ± 1.4e-05 s⁻¹ | 1380 ± 540 µM | – | – | –
AUAAAAGCGCCAGAACUACAGAAAUGUAGUUGACGAGGAGGAGGUUUAACGAAUUUUCGGCGGAUGUCUCCAAA [U49A C67U] | < 1e-05 s⁻¹ | – | < 1e-05 s⁻¹ | – | – | < 1e-05 s⁻¹ | –
AUAAAAGCGCCAGAACUACAGAAAUGUAGUUGACGAGGAGGAGGUUUUUCGAAAUUUCGGCGGAUGCCUCCAAA [A48U U54A] | 0.000682 ± 2.5e-05 s⁻¹ | 0.00029 ± 7.8e-05 s⁻¹ | 0.000524 ± 7.9e-05 s⁻¹ | 3130 ± 210 µM | 0.000113 ± 2.8e-05 s⁻¹ | – | 3.6e-05 ± 1.3e-05 s⁻¹
AUAAAAGCGCCAGAACUACAGAAAUGUAGUUGACGAGGAGGAGGUUUAACGAAUUUUCGGCGGAUGCGUCCAAA [U49A C68G] | 2.5e-05 ± 5.3e-06 s⁻¹ | – | – | – | – | – | –
AUAAAAGCGCCAGAACUACAGAAAUGUAGUUGACGAGGAGGAGGUUUAACGAAUUUUCGGCGGAUGCAUCCAAA [U49A C68A] | 1.25e-05 ± 6e-06 s⁻¹ | – | < 1e-05 s⁻¹ | – | – | < 1e-05 s⁻¹ | –
AUAAAAGCGCCAGAACUACAGAAAUGUAGUUGACGAGGAGGAGGUUUUUCGAAUUUUCGGCGGAGGCCUCCAAA [A48U U65G] | 0.000116 ± 1e-05 s⁻¹ | 8.19e-05 ± 1e-05 s⁻¹ | 9.9e-05 ± 9.7e-06 s⁻¹ | 1390 ± 430 µM | 3.11e-05 ± 9.7e-06 s⁻¹ | < 1e-05 s⁻¹ | –
AUAAAAGCGCCAGAACUACAGAAAUGUAGUUGACGAGGAGGAGGUUUUUCGAAUUCUCGGCGGAUGCCUCCAAA [A48U U56C] | 6.46e-05 ± 1e-05 s⁻¹ | 4.13e-05 ± 1.7e-05 s⁻¹ | 5.09e-05 ± 7.6e-06 s⁻¹ | – | – | – | < 1e-05 s⁻¹
AUAAAAGCGCCAGAACUACAGAAAUGUAGUUGACGAGGAGGAGGUUUUUCGAAUUGUCGGCGGAUGCCUCCAAA [A48U U56G] | 0.000239 ± 3.7e-06 s⁻¹ | – | 0.000206 ± 3.9e-05 s⁻¹ | 1590 ± 58 µM | 6.91e-05 ± 2e-05 s⁻¹ | – | –
AUAAAAGCGCCAGAACUACAGAAAUGUAGUUGACGAGGAGGAGGUUUACUGAAUUUUCGGCGGAUGCCUCCAAA [U49C C50U] | < 1e-05 s⁻¹ | – | < 1e-05 s⁻¹ | – | – | < 1e-05 s⁻¹ | –
AUAAAAGCGCCAGAACUACAGAAAUGUAGUUGACGAGGAGGAGGUUUACGGAAUUUUCGGCGGAUGCCUCCAAA [U49C C50G] | < 1e-05 s⁻¹ | – | < 1e-05 s⁻¹ | – | – | < 1e-05 s⁻¹ | < 1e-05 s⁻¹
AUAAAAGCGCCAGAACUACAGAAAUGUAGUUGACGAGGAGGAGGUUUAACGAGUUUUCGGCGGAUGCCUCCAAA [U49A A53G] | 2.25e-05 ± 2.1e-06 s⁻¹ | – | – | 3410 ± 1000 µM | – | – | –
AUAAAAGCGCCAGAACUACAGAAAUGUAGUUGACGAGGAGGAGGUUUUUCGAAUUUUCGGCGGGUGCCUCCAAA [A48U A64G] | 0.00341 ± 0.00044 s⁻¹ | 0.0012 ± 0.00016 s⁻¹ | 0.00214 ± 0.00022 s⁻¹ | 5500 ± 1100 µM | 0.000385 ± 7.8e-05 s⁻¹ | 2.41e-05 ± 7.5e-06 s⁻¹ | 8.32e-05 ± 1.7e-05 s⁻¹
AUAAAAGCGCCAGAACUACAGAAAUGUAGUUGACGAGGAGGAGGUUUACCGAAUUUUCGGCGGAUGGCUCCAAA [U49C C67G] | < 1e-05 s⁻¹ | – | < 1e-05 s⁻¹ | – | – | < 1e-05 s⁻¹ | < 1e-05 s⁻¹
AUAAAAGCGCCAGAACUACAGAAAUGUAGUUGACGAGGAGGAGGUUUUUCGAAUUUUCGGCGGAUGCCUACAAA [A48U C70A] | 1.64e-05 ± 7.1e-06 s⁻¹ | 3.28e-05 ± 1.6e-05 s⁻¹ | – | – | – | – | –
AUAAAAGCGCCAGAACUACAGAAAUGUAGUUGACGAGGAGGAGGUUUUUCGAAUUUUCGGCGGAUGCCUGCAAA [A48U C70G] | 3.29e-05 ± 1e-05 s⁻¹ | 4.89e-05 ± 9.2e-06 s⁻¹ | – | – | 3.69e-05 ± 1.1e-05 s⁻¹ | – | –
AUAAAAGCGCCAGAACUACAGAAAUGUAGUUGACGAGGAGGAGGUUUUUCGAGUUUUCGGCGGAUGCCUCCAAA [A48U A53G] | 0.000396 ± 3.6e-05 s⁻¹ | 0.000229 ± 3.5e-05 s⁻¹ | 0.000349 ± 4.7e-05 s⁻¹ | 1560 ± 290 µM | 0.000127 ± 1.9e-05 s⁻¹ | – | 2.96e-05 ± 1.2e-05 s⁻¹
